Laboratory results published in PMC3839617.

Biological target: neuropilin 1 (human) (UniProt O14786)
Assay: radioligand binding

Chain of UniProt O14786 (O14786 22-923): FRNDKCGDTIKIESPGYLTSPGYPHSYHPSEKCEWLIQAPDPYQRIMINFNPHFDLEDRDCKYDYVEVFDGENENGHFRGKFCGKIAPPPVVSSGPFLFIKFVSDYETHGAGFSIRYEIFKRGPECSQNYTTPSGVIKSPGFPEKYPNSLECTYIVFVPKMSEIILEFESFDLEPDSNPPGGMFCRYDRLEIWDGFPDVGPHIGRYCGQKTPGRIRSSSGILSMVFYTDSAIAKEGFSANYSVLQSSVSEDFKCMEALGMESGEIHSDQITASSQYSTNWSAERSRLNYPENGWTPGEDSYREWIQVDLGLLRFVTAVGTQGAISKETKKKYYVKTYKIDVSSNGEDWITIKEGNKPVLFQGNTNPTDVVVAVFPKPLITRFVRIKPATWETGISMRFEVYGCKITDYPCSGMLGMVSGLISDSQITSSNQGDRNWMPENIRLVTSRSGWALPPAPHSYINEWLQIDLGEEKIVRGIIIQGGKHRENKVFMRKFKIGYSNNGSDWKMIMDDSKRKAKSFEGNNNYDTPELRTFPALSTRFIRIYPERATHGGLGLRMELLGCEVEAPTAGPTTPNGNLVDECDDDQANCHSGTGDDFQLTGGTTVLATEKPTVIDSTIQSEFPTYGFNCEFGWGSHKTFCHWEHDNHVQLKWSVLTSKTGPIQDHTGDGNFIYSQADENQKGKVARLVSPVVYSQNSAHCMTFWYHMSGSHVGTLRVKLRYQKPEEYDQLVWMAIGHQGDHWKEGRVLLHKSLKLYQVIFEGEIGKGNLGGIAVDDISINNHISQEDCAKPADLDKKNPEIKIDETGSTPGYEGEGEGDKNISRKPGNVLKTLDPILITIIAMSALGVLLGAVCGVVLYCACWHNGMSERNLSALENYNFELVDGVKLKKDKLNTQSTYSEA

VEGF labelled by radioactive iodine (from UniProt P15692 1-395) (ligand)
I125VEGF bound: 413 fmol/µg | I125VEGF bound in the presence of SN: 504 fmol/µg
